This data set concerns the molecule itself. The experiment in a line: self-association: reducing and non-reducing SDS-PAGE and size exclusion chromatography of purified mHRF-His6.

The results in this text go back to patent US20130084293A1 (LA JOLLA INSTITUTE FOR ALLERGY AND IMMUNOLOGY, published 2013).

B1: C-terminally hexahistidine-tagged mouse HRF (mHRF-His6) (ligand)
chain: MIIYRDLISHDELFSDIYKIREIADGLCLEVEGKMVSRTEGAIDDSLIGGNASAEGPEGEGTESTVVTGVDIVMNHHLQETSFTKEAYKKYIKDYMKSLKGKLEEQKPERVKPFMTGAAEQIKHILANFNNYQFFIGENMNPDGMVALLDYREDGVTPFMIFFKDGLEMEKCHHHHHH
notes: Expressed in E. coli BL21(DE3) from pET-24a(+)
B1: the binding result is “binds”.
